Test results as given in US20240424125A1 (Zymeworks, published 2024).

Target: T1, recombinant His-tagged human FRα (ACROBiosystems) (human, UniProt P15328 25-233)
T1 construct: also called hFRα; hFRα antigen; not shown: His tag
Experiment: BLI (Octet RED96): antibody on anti-human IgG Fc capture biosensor, His-tagged hFRα as analyte, 1:1 global fit, mean of n=2
Method in brief: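 Run at 30° C with 1000 rpm shaking in kinetics buffer (PBS pH 7.4, 0.1% BSA, 0.02% Tween 20, 0.05% sodium azide) plus 0.06% Tween 20, sometimes 1% BSA. Reference-subtracted curves globally fitted to a 1:1 model, giving kon, koff and KD.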

T1 sequence (P15328 25-233 limits assumed): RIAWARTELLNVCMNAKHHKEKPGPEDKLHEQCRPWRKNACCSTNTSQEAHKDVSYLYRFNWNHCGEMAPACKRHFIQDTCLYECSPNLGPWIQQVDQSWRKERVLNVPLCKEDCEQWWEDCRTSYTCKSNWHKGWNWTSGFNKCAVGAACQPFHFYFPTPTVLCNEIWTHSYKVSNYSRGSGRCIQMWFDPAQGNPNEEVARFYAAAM

Kd: 27 nM
B1: v23924 (antibody, human IgG1, kappa, V domains shown)
VH: QSVKESEGGLFKPTDTLTLTCTVSGFSLSSYGVSWVRQAPGNGLEWIGAVNSGGSAYYANWAKSRSTITRNTNLFTVTLKMTSLAVADTATYFCARSGSGYPMDYLAIWGPGTLVTVSS
VL: AYDMTQTPASVEVAVGGTVTIKCQASQSIGDWLAWYQQKPGQPPRLLIYEASTLASGVPSRFSGSGSGTQFTLTISGVECADAATYYCQQGYGRSNVDNIFGGGTEVVVKR
notes: Rabbit-human chimeric full-size antibody, human IgG1/kappa, HomoFc; also called variant v23924; parental chimeric anti-FRα antibody
